Earlier results as cited in patent US20140322315A1, “CYSTEAMINE AND/OR CYSTAMINE FOR TREATING ISCHEMIC INJURY” (The Regents of the University of California, priority 2011, published 2014).

System: acute ischemic stroke

B1: tPA: tissue plasminogen activator, FDA approved 1996 as therapy for acute ischemic stroke (protein, UniProt P00750 36-562, looked up)
Tissue-type plasminogen …: SYQVICRDEKTQMIYQQHQSWLRPVLRSNRVEYCWCNSGRAQCHSVPVKSCSEPRCFNGGTCQQALYFSDFVCQCPEGFAGKCCEIDTRATCYEDQGISYRGTWSTAESGAECTNWNSSALAQKPYSGRRPDAIRLGLGNHNYCRNPDRDSKPWCYVFKAGKYSSEFCSTPACSEGNSDCYFGNGSAYRGTHSLTESGASCLPWNSMILIGKVYTAQNPSAQALGLGKHNYCRNPDGDAKPWCHVLKNRRLTWEYCDVPSCSTCGLRQYSQPQFRIKGGLFADIASHPWQAAIFAKHRRSPGERFLCGGILISSCWILSAAHCFQERFPPHHLTVILGRTYRVVPGEEEQKFEVEKYIVHKEFDDDTYDNDIALLQLKSDSSRCAQESSVVRTVCLPPADLQLPDWTECELSGYGKHEALSPFYSERLKEAHVRLYPSSRCTSQHLLNRTVTDNMLCAGDTRSGGPQANLHDACQGDSGGPLVCLNDGRMTLVGIISWGLGCGQKDVPGVYTKVTNYLDWIRDNMRP
For B1, the “improvement in clinical outcome” value (some, but not all, of the controlled trials in acute ischemic stroke) is given as 30-55% and the “complete resolution of symptoms, share of the time” value (thrombolytic therapy with tPA) is given as “less than 40%”.
